Earlier results on 1 substance are cited in publication PMC2742733.

The target in the series is TEM-8 (Homo sapiens) (UniProt Q9H6X2).

Take “Protective antigen (PA) (from UniProt P13423)”: the equilibrium dissociation constant (Kd) is 0.13 µM.
